What was measured:
[1] = system: tumours and other background tissues; test: Gamma-recording after technetium-99m labelled dextran derivative: accumulation into tumours and background tissues; conditions: patient, 20 mCi technetium-99m labelled dextran derivative
Description: The Effect of Different Dextran Conjugates on the Tumour Accumulation and Background-activity
After the administration of 20 mCi of technetium-99 m, labelled dextran derivative to the patient a gamma-recording was carried out on the patient. From the image, the accumulation of the labelled compound into the tumours and to the other background tissues was evaluated. The compounds of the state of the art were prepared as described in the publication Holmberg et al., Antibody Immunoconj. Radiopharm 7: 253-257, 1994.

[2] = Holmberg et al. 1994; cited from earlier work

Row | Substance | Background (accumulation of the labelled compound into other background tissues) [1] | Tumour (accumulation of the labelled compound into the tumours) [1] | half-life in blood T(1)½ [2] | half-life in blood T(2)½ [2]
1 | Dextran 10 000 somatostatin-taurine-^99mTc: Technetium-99m labelled dextran 10 000 somatostatin taurine conjugate, listed under The Invention | ++ | + | – | –
2 | Dextran 40 000 somatostatin-taurine ^99mTc: Dextran 40 000-somatostatin-taurine labelled with technetium-99m using SnCl and sodium pertechnetate | + | – | – | –
3 | Dextran 10 000 somatostatin-^99mTc: State of the art conjugate prepared as in Holmberg et al. 1994; dextran 10 000 somatostatin labelled with technetium-99m | +++ | + | 4 h | 8 h
4 | Dextran 40 000 somatostatin ^99mTc: State of the art dextran 40 000 somatostatin conjugate labelled with technetium-99m, without taurine | ++ | ++ | – | –

Reference: patent US6455025B1, “Polysaccharide-peptide derivatives” (Map Medical Technologies Oy, priority 1996, dated 2002)
